PMC4240654 (2014)

B1: BDD rFVIIIa (ReFacto) (protein)
chain 1: ATRRYYLGAVELSWDYMQSDLGELPVDARFPPRVPKSFPFNTSVVYKKTLFVEFTDHLFNIAKPRPPWMGLLGPTIQAEVYDTVVITLKNMASHPVSLHAVGVSYWKASEGAEYDDQTSQREKEDDKVFPGGSHTYVWQVLKENGPMASDPLCLTYSYLSHVDLVKDLNSGLIGALLVCREGSLAKEKTQTLHKFILLFAVFDEGKSWHSETKNSLMQDRDAASARAWPKMHTVNGYVNRSLPGLIGCHRKSVYWHVIGMGTTPEVHSIFLEGHTFLVRNHRQASLEISPITFLTAQTLLMDLGQFLLFCHISSHQHDGMEAYVKVDSCPEEPQLRMKNNEEAEDYDDDLTDSEMDVVRFDDDNSPSFIQIRSVAKKHPKTWVHYIAAEEEDWDYAPLVLAPDDRSYKSQYLNNGPQRIGRKYKKVRFMAYTDETFKTREAIQHESGILGPLLYGEVGDTLLIIFKNQASRPYNIYPHGITDVRPLYSRRLPKGVKHLKDFPILPGEIFKYKWTVTVEDGPTKSDPRCLTRYYSSFVNMERDLASGLIGPLLICYKESVDQRGNQIMSDKRNVILFSVFDENRSWYLTENIQRFLPNPAGVQLEDPEFQASNIMHSINGYVFDSLQLSVCLHEVAYWYILSIGAQTDFLSVFFSGYTFKHKMVYEDTLTLFPFSGETVFMSMENPGLWILGCHNSDFRNRGMTALLKVSSCDKNTGDYYEDSYEDISAYLLSKNNAIEPR
chain 2: SFQKKTRHYFIAAVERLWDYGMSSSPHVLRNRAQSGSVPQFKKVVFQEFTDGSFTQPLYRGELNEHLGLLGPYIRAEVEDNIMVTFRNQASRPYSFYSSLISYEEDQRQGAEPRKNFVKPNETKTYFWKVQHHMAPTKDEFDCKAWAYFSDVDLEKDVHSGLIGPLLVCHTNTLNPAHGRQVTVQEFALFFTIFDETKSWYFTENMERNCRAPCNIQMEDPTFKENYRFHAINGYIMDTLPGLVMAQDQRIRWYLLSMGSNENIHSIHFSGHVFTVRKKEEYKMALYNLYPGVFETVEMLPSKAGIWRVECLIGEHLHAGMSTLFLVYSNKCQTPLGMASGHIRDFQITASGQYGQWAPKLARLHYSGSINAWSTKEPFSWIKVDLLAPMIIHGIKTQGARQKFSSLYISQFIIMYSLDGKKWQTYRGNSTGTLMVFFGNVDSSGIKHNIFNPPIIARYIRLHPTHYSIRSTLRMELMGCDLNSCSMPLGMESKAISDAQITASSYFTNMFATWSPSKARLHLQGRSNAWRPQVNNPKEWLQVDFQKTMKVTGVTTQGVKSLLTSMYVKEFLISSSQDGHQWTLFFQNGKVKVFQGNQDSFTPVVNSLDPPLLTRYLRIHPQSWVHQIALRMEVLGCEAQDLY
modifications: B-domain deleted, thrombin-activated
B2: rFVIIIFc (thrombin-activated) (protein)
chain 1: B1 chain 1
chain 2: B1 chain 2
modifications: Fc fusion, thrombin-activated
B3: SC rFVIIIFc (thrombin-activated) (protein)
chain 1: B1 chain 1
chain 2: B1 chain 2
modifications: single-chain Fc fusion, thrombin-activated

Each binder was assayed against Factor IXa (Homo sapiens, UniProt P00740) (assay: FXa generation assay).
Chain of Factor IXa (P00740 47-191): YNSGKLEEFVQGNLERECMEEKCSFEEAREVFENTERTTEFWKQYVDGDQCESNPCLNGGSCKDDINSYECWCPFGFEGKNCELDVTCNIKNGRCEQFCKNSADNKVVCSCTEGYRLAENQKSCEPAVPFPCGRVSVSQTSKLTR

Kd [nM]	Binder
4.5	B1
5.5	B2
4.1	B3
